Results as given in paper PMC3269963 (Journal of Immunology (Baltimore, Md. : 1950), 2011).

Biological target: recombinant His-tag PCNA (proliferating cell nuclear antigen) (human, UniProt P12004 1-261)
Assay: SPR

Sequence of recombinant His-tag PCNA (proliferating cell nuclear antigen) (P12004 whole entry): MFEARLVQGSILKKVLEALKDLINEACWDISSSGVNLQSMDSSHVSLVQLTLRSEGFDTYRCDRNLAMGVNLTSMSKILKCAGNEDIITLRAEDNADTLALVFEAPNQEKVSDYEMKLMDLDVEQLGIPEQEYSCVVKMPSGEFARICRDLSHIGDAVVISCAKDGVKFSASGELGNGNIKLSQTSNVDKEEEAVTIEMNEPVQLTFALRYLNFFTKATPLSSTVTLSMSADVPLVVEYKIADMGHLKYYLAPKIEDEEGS

B1: NKp44-Ig (Fc fusion, UniProt O95944 22-192, looked up)
chain: QSKAQVLQSVAGQTLTVRCQYPPTGSLYEKKGWCKEASALVCIRLVTSSKPRTMAWTSRFTIWDDPDAGFFTVTMTDLREEDSGHYWCRIYRPSDNSVSKSVRFYLVVSPASASTQTSWTPRDLVSSQTQTQSCVPPTAGARQAPESPSTIPVPSQPQNSTLRPGPAAPIA
Which Kd does the source give for B1 here?
Its Kd is 3.4 nM.
